Consider one molecule from patent publication US20130266574A1 (Regeneron, published 2013).

The experiment addresses T1, mANGPTL4-His [R26-S410 of mANGPTL4 (SEQ ID NO: 478) fused with an AS linker to a C-terminal 6-histidine tag] (mouse, UniProt Q9Z1P8 26-410).
T1 construct: also called mANGPTL4(26-410)-His
T1 sequence: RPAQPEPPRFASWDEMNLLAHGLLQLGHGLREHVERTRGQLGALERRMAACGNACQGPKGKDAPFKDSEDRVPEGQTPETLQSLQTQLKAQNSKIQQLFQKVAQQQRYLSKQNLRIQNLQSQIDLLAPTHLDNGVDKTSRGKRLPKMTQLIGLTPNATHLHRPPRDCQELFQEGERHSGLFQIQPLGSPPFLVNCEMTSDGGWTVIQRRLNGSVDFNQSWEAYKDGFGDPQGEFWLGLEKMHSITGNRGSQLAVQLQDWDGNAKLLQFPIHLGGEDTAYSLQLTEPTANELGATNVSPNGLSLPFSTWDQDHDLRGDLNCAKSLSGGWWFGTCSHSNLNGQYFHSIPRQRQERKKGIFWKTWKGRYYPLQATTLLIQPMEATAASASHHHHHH
In words: SPR (Biacore), antigen amine coupled. How it is done: Possible cross-reactivity of the anti-hANGPTL4 antibodies to related proteins, i.e., hANGPTL3, human angiopoietin-like protein 5 (hANGPTL5) and mouse ANGPTL4 (mANGPTL4), was tested for the selected antibodies, i.e., H1H268P and H1H284P, using the BIACORE™ system. Briefly, anti-hANGPTL4 antibodies as well as negative controls, i.e., two monoclonal antibodies (Control a and Control b) that are non-binders to any ANGPTL proteins, were injected at 3.125 μg/mL-50 μg/mL over amine coupled chip surfaces of hANGPTL3-His (R&D Systems, cat #3829-AN) at 5228 RU, hANGPTL4-His (R&D Systems, cat #4487-AN) at 6247 RU, hANGPTL5-His (Abnova Corp., cat #H00253935-P01) at 5265 RU, and mANGPTL4-His [R26-S410 of mANGPTL4 (SEQ ID NO: 478) fused with an AS linker to a C-terminal 6-histidine tag] at 5233 RU, respectively. A polyclonal antibody specific for hANGPTL3 (R&D System, cat #BAF3485) was also tested.

B1: H1H284P (antibody, V domains shown)
VH: QVQLVESGGGVVQPGRSLRLSCAASGFTFSSYGMHWVRQAPGKGLEWMAVISFDGGNKNNADSVKGRFTISRDNSKNTLYLQMNSLRAEDTAVYYCAKEGDRSGHPYFYYYGLDVWGQGTTVTVS
VL: DIQLTQSPSFLSASVGDRVTITCWASQGISSYLAWYQQKPGKAPKLLIYAASTLQSGVPSRFSGSGSETEFTLTISSLQPEDFATYYCQQLHSYPLTFGGGTKVEIK
notes: also called entire H1H284 mAb; Full mAb
Take B1: the binding result was “no binding (tested: 3.125 µg/mL-50 µg/mL)”.
